Article PMC8354476, “Acyl-CoA oxidase ACOX-1 interacts with a peroxin PEX-5 to play roles in larval development of Haemonchus contortus” (PLoS Pathogens, 2021)

Substrate: CCCCCCCCCCCCCCCC(=O)SCCNC(=O)CCNC(=O)[C@H](O)C(C)(C)COP(=O)(O)OP(=O)(O)OC[C@H]1O[C@@H](n2cnc3c(N)ncnc32)[C@H](O)[C@@H]1OP(=O)(O)O
Assay: purified protein
Assay type: biochemical, Haemonchus contortus
Conditions: 10 μM FAD, 50 mM potassium phosphate
[1] = pH 7.5, 42°C (optimum conditions)

Protein | Km [1] [µM] | Km (pH 7.5, 37°C (optimum conditions)) [µM]
rHc-ACOX-1.2 (Haemonchus contortus) (protein, N-terminal FLAG tag, pcDNA3.1, expressed in HEK293T cells, purified on anti-FLAG magnetic beads; locus chromosome IV: 9789018-9796292; Glu206 active site; C-terminal PTS1 (SKL)) MPFRGITVGDIGPKMAYNGVDNGFLAFHHYRIPRNNMLMKHVKVTPDGKYVPPAHAKVGYSAMVHVRAHMISTQAAFLAQALTTAIRYSAIRRQGEIQPGQGEVKILEYQTQQHRLFPQLARAYAFIFTGQAVRVIFQRVQKDVARGKVDEMAKLHYISSGLKAVVTYLTGQGIEQARMSCGGHGYSKASNMSELYGVAIGGATYEGENMVMLQQLARYLMKSAEAAKSGRAVGKLVDYLVRSSEQRSAIDRQPDHDYSAHLKAFDKAAKLQVMKAYERMQSLRAQGLLEEEAWNANAVELNRAARVHTRQYIARTFDEHVKAVVHGPCREVLLDLLHLHLNYELLDMAYYLLEDGYLSGQQLDYMKEDMYRLLARLRPNIVSLVDSWDFSDHELRSVLGRRDGHVYENLYKWAQESELNRTQVLPTFEKYLKPMMKQAREQSKL | 6.83 | 
rHc-ACOX-1.3 (Haemonchus contortus) (protein, N-terminal FLAG tag, pcDNA3.1, expressed in HEK293T cells, purified on anti-FLAG magnetic beads; Glu206 active site; C-terminal PTS1 (SKL)) MPFRGITVGDIGPKMAYNGVDNGFLAFDHYRIPRNNMLMKHVKVTPEGKYVPPAHAKVGYSAMVHVRAHMISTQAAFLAQALTTAIRYSAIRRQGEIQPGRGEVKILEYQTQQHRLFPQLARAYAFIFTGQAVRVIFQRVQKDVARGKVDEMAELHYISSGLKAVVTYLTGQGIEQARMSCGGHGYSKASNMSELYGVAIGGATYEGENMVMLQQLARYLMKSAEAAKNGRAVGKLVDYLVRSSEQRSAIDRKPDHDYTAHLKAFDKAAKLQVMKAYERMQSLRARGLTEEEAWNANAVELNRAARVHTRQYIARTFDEHVKAVVHGPCREVLLDLLYLHLNYELLDMAYYLLEDGYLSGQQMDYMKEDMYRLLARLRPNIVSLVDSWDFSDHELRSVLGRRDGHVYENLYKWAQESELNRTQVLPTFEKYLKPMMKQAREQSKL | 12.64 | 
rHc-ACOX-1.1 (Haemonchus contortus) (protein, full-length transcript 2019 nt; N-terminal FLAG tag, pcDNA3.1, expressed in HEK293T cells, purified on anti-FLAG magnetic beads; locus chromosome IV: 9780094-9786809; Thr151, Gly190, Glu433 predicted sites; C-terminal PTS1 (SKL)) MPLNKLLRDGDNEDLAEERRKATFDTDEMAAIIWEGKERVRRRREITKKVNEYTELHDPYCQAFMTRHEEVENAARKITKMFSLIDKLGVNPTNAADMAHLTSEVIGLYGHPLALHAVMFIPSLQAQCADDQMHWLKKAMSRQIIGTYAQTELGHGTNLRKLETTATHDANTQEFVLHSPTRTAMKWWPGNLGKSANHAVVVACLIIDGKNYGPHNFIVPLRDPETHMPLKGITVGDIGPKMATGPVDNGFLSFDHYRIPRTNMLMKHAKVTPEGKYIPPAHAKVGYSAMVHVRSHMISDQAKFLAQALTTAIRYSAIRRQGEIQPGDGEVKILEYQTQQYRLLPQLARAYAFSFTGRAVRDLYLRVQKDVAKGKVDEMAELHYITSGLKAVVTHLTGEGISQARMSCGGHGYSKASNMPDLYGIAVADCTYEGENMVMLQQLARYLMRAAGEAEKGRALGRLVNYLVEPSDIHSSIDRQLDYDYKAHLKAFDKAAKLQVMKAYERMRALKAQGLSEEDAWNANAVELNRAARVHTRQYIAHQFYEQVSSVTDGRCREVPRDLLHLHLNYEILDMAYYLLEDGFLSGQQMDYMKEDMYRLLAKLRPNAVSLVDSWDISDHELRSVLGRRDGHVYENLYKWAQESELNRTQVLPTFEKYLKPMMMEAHAQSKL |  | 78.79
